Results taken from the supplement of paper PMC11316812.
± gives the standard deviation of the averaged measurements.

What was measured:
MCF7 = experiment: percentage of EdU-negative (G0-arrested) nuclei per well, 72 h; higher = more G0 arrest; details: reference: sequence is the full UniProt precursor, the tested protein was the secreted form or ectodomain
hTERT-HMEC = experiment: as above; details: reference: sequence is the full UniProt precursor, the tested protein was the secreted form or ectodomain
[1] = protein concentration 0.0284075 µM
[2] = protein concentration 0.284075 µM
[3] = protein concentration 0.0225 µM
[4] = protein concentration 0.0185 µM
[5] = protein concentration 0.0357143 µM
[6] = protein concentration 0.357143 µM
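Further: secreted proteins added to cultured cells, EdU pulse at the end, nuclei found by Hoechst imaging, EdU status from nuclear versus surrounding ring intensity ratio, PBS as neutral control.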

MRVSGVLRLLALIFAIVTTWMFIRSYMSFSMKTIRLPRWLAASPTKEIQVKKYKCGLIKPCPANYFAFKICSGAANVVGPTMCFEDRMIMSPVKNNVGRGLNIALVNGTTGAVLGQKAFDMYSGDVMHLVKFLKEIPGGALVLVASYDDPGTKMNDESRKLFSDLGSSYAKQLGFRDSWVFIGAKDLRGKSPFEQFLKNSPDTNKYEGWPELLEMEGCMPPKPF [Q96BQ1]
percentage of EdU-negative (MCF7; [1]): 27.2 ± 0.94%
percentage of EdU-negative (MCF7; [2]): 26.6 ± 1.5%
percentage of EdU-negative (hTERT-HMEC; [1]): 5 ± 0.84%
percentage of EdU-negative (hTERT-HMEC; [2]): 6.345 ± 0.041%

MTPILTVLICLGLSLGPRTHVQAGHLPKPTLWAEPGSVIIQGSPVTLRCQGSLQAEEYHLYRENKSASWVRRIQEPGKNGQFPIPSITWEHAGRYHCQYYSHNHSSEYSDPLELVVTGAYSKPTLSALPSPVVTSGGNVTLQCVSQVAFDGFILCKEGEDEHPQRLNSHSHARGWSWAIFSVGPVSPSRRWSYRCYAYDSNSPYVWSLPSDLLELLVPGVSKKPSLSVQPGPMVAPGESLTLQCVSDVGYDRFVLYKEGERDFLQRPGWQPQAGLSQANFTLGPVSPSHGGQYRCYSAHNLSSEWSAPSDPLDILITGQFYDRPSLSVQPVPTVAPGKNVTLLCQSRGQFHTFLLTKEGAGHPPLHLRSEHQAQQNQAEFRMGPVTSAHVGTYRCYSSLSSNPYLLSLPSDPLELVVSEAAETLSPSQNKTDSTTTSLGQHPQDYTVENLIRMGVAGLVLVVLGILLFEAQHSQRSLQDAAGR [Q8N149]
percentage of EdU-negative (MCF7; [3]): 23.9 ± 0.99%
percentage of EdU-negative (MCF7; protein concentration 0.225 µM): 26.3 ± 3.1%
percentage of EdU-negative (hTERT-HMEC; [3]): 5.36 ± 0.5%
percentage of EdU-negative (hTERT-HMEC; protein concentration 0.225 µM): 4.88 ± 0.47%

MAALLLGAVLLVAQPQLVPSRPAELGQQELLRKAGTLQDDVRDGVAPNGSAQQLPQTIIIGVRKGGTRALLEMLSLHPDVAAAENEVHFFDWEEHYSHGLGWYLSQMPFSWPHQLTVEKTPAYFTSPKVPERVYSMNPSIRLLLILRDPSERVLSDYTQVFYNHMQKHKPYPSIEEFLVRDGRLNVDYKALNRSLYHVHMQNWLRFFPLRHIHIVDGDRLIRDPFPEIQKVERFLKLSPQINASNFYFNKTKGFYCLRDSGRDRCLHESKGRAHPQVDPKLLNKLHEYFHEPNKKFFELVGRTFDWH
percentage of EdU-negative (MCF7; [4]): 21.85 ± 0.18%
percentage of EdU-negative (MCF7; protein concentration 0.185 µM): 26.7 ± 1.6%
percentage of EdU-negative (hTERT-HMEC; [4]): 4.41 ± 0.35%
percentage of EdU-negative (hTERT-HMEC; protein concentration 0.185 µM): 11.85 ± 0.08%

MRTIAILAAILLVALQAQAESLQERADEATTQKQSGEDNQDLAISFAGNGLSALRTSGSQARATCYCRTGRCATRESLSGVCEISGRLYRLCCR
percentage of EdU-negative (MCF7; [3]): 27.1 ± 0.85%
percentage of EdU-negative (MCF7; protein concentration 0.225 µM): 25.5 ± 1.3%
percentage of EdU-negative (hTERT-HMEC; [3]): 4.85 ± 0.56%
percentage of EdU-negative (hTERT-HMEC; protein concentration 0.225 µM): 5.716 ± 0.019%

MLCLLLTLGVALVCGVPAMDIPQTKQDLELPKLAGTWHSMAMATNNISLMATLKAPLRVHITSLLPTPEDNLEIVLHRWENNSCVEKKVLGEKTENPKKFKINYTVANEATLLDTDYDNFLFLCLQDTTTPIQSMMCQYLARVLVEDDEIMQGFIRAFRPLPRHLWYLLDLKQMEEPCRF
percentage of EdU-negative (MCF7; [5]): 24.5 ± 2.6%
percentage of EdU-negative (MCF7; [6]): 23 ± 1.3%
percentage of EdU-negative (hTERT-HMEC; [5]): 5.01 ± 0.051%
percentage of EdU-negative (hTERT-HMEC; [6]): 5.65 ± 0.33%

MMRTCVLLSAVLWCLTGVQCPRFTLFNKKGFIYGKTGQPDKIYVELHQNSPVLICMDFKLSKKEIVDPTYLWIGPNEKTLTGNNRINITETGQLMVKDFLEPLSGLYTCTLSYKTVKAETQEEKTVKKRYDFMVFAYREPDYSYQMAVRFTTRSCIGRYNDVFFRVLKKILDSLISDLSCHVIEPSYKCHSVEIPEHGLIHELFIAFQVNPFAPGWKGACNGSVDCEDTTNHNILQARDRIEDFFRSQAYIFYHNFNKTLPAMHFVDHSLQVVRLDSCRPGFGKNERLHSNCASCCVVCSPATFSPDVNVTCQTCVSVLTYGAKSCPQTSNKNQQYED [Q6X784]
percentage of EdU-negative (MCF7; [5]): 24.6 ± 1.8%
percentage of EdU-negative (MCF7; [6]): 28.8 ± 3.5%
percentage of EdU-negative (hTERT-HMEC; [5]): 4.95 ± 0.69%
percentage of EdU-negative (hTERT-HMEC; [6]): 6.88 ± 0.23%

MALFAVFQTTFFLTLLSLRTYQSEVLAERLPLTPVSLKVSTNSTRQSLHLQWTVHNLPYHQELKMVFQIQISRIETSNVIWVGNYSTTVKWNQVLHWSWESELPLECATHFVRIKSLVDDAKFPEPNFWSNWSSWEEVSVQDSTGQDILFVFPKDKLVEEGTNVTICYVSRNIQNNVSCYLEGKQIHGEQLDPHVTAFNLNSVPFIRNKGTNIYCEASQGNVSEGMKGIVLFVSKVLEEPKDFSCETEDFKTLHCTWDPGTDTALGWSKQPSQSYTLFESFSGEKKLCTHKNWCNWQITQDSQETYNFTLIAENYLRKRSVNILFNLTHRVYLMNPFSVNFENVNATNAIMTWKVHSIRNNFTYLCQIELHGEGKMMQYNVSIKVNGEYFLSELEPATEYMARVRCADASHFWKWSEWSGQNFTTLEAAPSEAPDVWRIVSLEPGNHTVTLFWKPLSKLHANGKILFYNVVVENLDKPSSSELHSIPAPANSTKLILDRCSYQICVIANNSVGASPASVIVISADPENKEVEEERIAGTEGGFSLSWKPQPGDVIGYVVDWCDHTQDVLGDFQWKNVGPNTTSTVISTDAFRPGVRYDFRIYGLSTKRIACLLEKKTGYSQELAPSDNPHVLVDTLTSHSFTLSWKDYSTESQPGFIQGYHVYLKSKARQCHPRFEKAVLSDGSECCKYKIDNPEEKALIVDNLKPESFYEFFITPFTSAGEGPSATFTKVTTPDEHSSMLIHILLPMVFCVLLIMVMCYLKSQWIKETCYPDIPDPYKSSILSLIKFKENPHLIIMNVSDCIPDAIEVVSKPEGTKIQFLGTRKSLTETELTKPNYLYLLPTEKNHSGPGPCICFENLTYNQAASDSGSCGHVPVSPKAPSMLGLMTSPENVLKALEKNYMNSLGEIPAGETSLNYVSQLASPMFGDKDSLPTNPVEAPHCSEYKMQMAVSLRLALPPPTENSSLSSITLLDPGEHYC
percentage of EdU-negative (MCF7; [3]): 26.44 ± 0.24%
percentage of EdU-negative (MCF7; protein concentration 0.225 µM): 24.9 ± 2%
percentage of EdU-negative (hTERT-HMEC; [3]): 4.25 ± 0.45%
percentage of EdU-negative (hTERT-HMEC; protein concentration 0.225 µM): 5.8 ± 0.95%
